{
  "source": "the DeepSol protein solubility set",
  "data": [
    {"assay": "soluble on expression in E. coli; label from the status in PepcDB or PDB records", "values": [
      {"sequence": "MYYIASADSQQSQQGRSQAEAPEFLTEKCPFVGLKSTLEQVGTPR", "soluble on expression in E. coli": "not soluble"},
      {"sequence": "MSLRMQDIERKVIEWLDQHSAKAIRLLKRLIGEKSTLGSEFNAQAVVLEKLRQFHMDIDVWEPSIKQLKQHPYFKSNRSDFHESPNIVAKKTGAGGGRSLILNGHIDVVPEGSVKDWKYEPYQAVEENGKIYGRGSTDMKGGNTALLFALEALHACDVKLKGDVLFQSVVDEECGGAGTLSAIMRGYRADGALIPEPTNMKLFIKQQGSMWFRITVKGLSAHGGTRYEGVSAIEKSMHVITAIQELEKVRNARISDPLYDNIPIPVPVNIGTISGGAWPSSVADRVVIEGRCGIAPHEKPEAVKLELENWLKDLEYHDEWFKRHPVQVEWFGAQWLPNDLPDDHPLISVLQSAYQKMKQTEPIIEASPWGTDGGLLYHAGDTPVIVFGPGETKTAHQANEYIEVEAMIESAKIIALFVMDWCGLHTDGEGHHHHHH", "soluble on expression in E. coli": "soluble"},
      {"sequence": "MGHHHHHHSHMTLKSSGRISDVFLCRHEKIFHPNKGYIYVVKVMRENTHEATYIQRTFEEFQELHNKLRLLFPSSHLPSFPSRFVIGRSRGEAVAERRREELNGYIWHLIHAPPEVAECDLVYTFFHPLPRDEKAMGTSPAPKSSDGTWARPVGKVGGEVKLSISYKNNKLFIMVMHIRGLQLLQDGNDPDPYVKIYLLPDPQKTTKRKTKVARKTCNPTYNEMLVYDGIPKGDLQQRELQLSVLSEQGFWENVLLGEVNIRLRELDLAQEKTGWFALGSRSHGTL", "soluble on expression in E. coli": "not soluble"},
      {"sequence": "MEILSGRSSIIIDTDPINVYNQAHPPFSFPIPAKDVMSVASRPDLRNENLMVFSSIEGDLALLKSMNLPANVKIVYDNTDGSWVRYYPYAFYRSINAEELYAKIDDFVVLDIREEFELFSGFIEGSVNIPFSSIMQEPVELDKNRKYAVVCAHGNRSRVAVELLSSKGIEVYDVPGGMQKWLETGLPVSYEED", "soluble on expression in E. coli": "not soluble"},
      {"sequence": "MSLEMYPKIEDIKASYQNYCEFLEKVNTINLLKHKGKYIHYEDFNDNQIKRKIEKLESSILKTNVKYQKGAYIIYYKLRPGVIEFLRTMSEKYEIYLYTMGTLEHAKSCLFLLDPLRKFFGNRVFSRKDCLNSLKHLNKILPTYRSVSICIDDSDYIWKENSSCIKVHGYNYFPDINFFEDIKRAPYFLTKFFTFAQSYLNFTSNIYRFINFKCSEHEEFLKEGHHHHHH", "soluble on expression in E. coli": "not soluble"},
      {"sequence": "MGSDKIHHHHHHMSQQEFDVLVIGAGISGAALFYELARYTNIKNIALIEKYNTAATLNSKGTSNSQTIHCGDIETNYTLEKARKVKRTADMIVKYGLMQNAQNNFMFSHQKMALAVGDIECDYMKKRYEEFKELYPYIKFFDKAKIKQIEPKVVLGEDCNQDRPENICAMGVESGEVFTTVDFGKMSINLIEQAQKQNKNTFVAFNQEIIHIEKKDDIFILKTSNHQEYHAKSVVVNAGAHSLYLAHKMNLGMDKSCWPVAGSFYLTKQKLLNGKVYMVQNPKLPFAALHGDPDLLADMNTRFGPTALVIPKLERYHGLKSVPEFFEALKLDKTVLKVTFNMFKDATIRNYIFYNYLFELPFVDKSLFVKDAKKIVPSLKASDIYYAKGFGGVRPQVIDKTKGELMLGEASITETPGIIFNMTPSPGATSCLGNAERDAKLVCNYLGMEFNEDKFSSELL", "soluble on expression in E. coli": "not soluble"},
      {"sequence": "MGSDKIHHHHHHMKYALGNILYYWPKEDVEAFYQAAVNSSADIVYLGETVCSKRRLMKVADWFNVAREVANSGKQVVISTLALLQAPSELTELRRYVENGEFLLEANDLGAVNIAAERNLPFVAGHALNCYNAYTLRVLHKQGMVRWCMPVELSRDWLQNLLNQCEELGFRHQFEVEVLSYGHLPLAYSARCFTARSEDRPKDECETCCLSYPQGRKMLSQENQQVFVLNGIQTQSGYCYNLGNELTSMRDLVDIVRLSPNDITTPAMLDTFRANEQGNMPLTLQNQADCNGYWRRVAGLELVQ", "soluble on expression in E. coli": "not soluble"},
      {"sequence": "MTNEFEILKPGKLLLASANLLDPNFKRTVLLMCEHNEEGSIGFILNKPMEFKVCEAISGFDEIDEPLHMGGPVQVDTVHVLHTRGDVIDGAVEVIPGLFWGGDKEQLSYLINTGVIKASEVRFFLGYAGWSAGQLEAEFEEGSWYTADASSEQVFTDEYERMWSRSVRSKGGEYCYVANSPELPGMNLEHHHHHH", "soluble on expression in E. coli": "not soluble"},
      {"sequence": "PDEKIVRIHSSSGTTGSPVIIPYTQKDVDVWSEMMMRCYQMAGVTNNDRVHITPGYGLWTAGIGFQLGAERLGAMAIPMGPGNTEKQLQMMVDLKSTVLTSTSSYALLLAEEIRKKGIQDKIHLKIGVIGSERWSEKMRNRIESELGIKSFDIYGLTEIYGPGIALDCEYHEGMHYW", "soluble on expression in E. coli": "not soluble"},
      {"sequence": "MSNSSMSVVILAAGKGTRMYSDLPKVLHPLAGKPMVQHVIDAAMKLGAQHVHLVYGHGGELLKKTLADPSLNWVLQAEQLGTGHAMQQAAPHFADDEDILMLYGDVPLISVDTLQRLLAAKPEGGIGLLTVKLDNPSGYGRIVRENGDVVGIVEHKDASDAQREINEINTGILVANGRDLKRWLSLLDNNNAQGEFYITDIIALAHADGKKIATVHPTRLSEVEGVNNRLQLSALERVFQTEQAEKLLLAGVMLLDPSRFDLRGELTHGRDITIDTNVIIEGHVILGDRVRIGTGCVLKNCVIGDDSEISPYTVLEDARLDANCTVGPFARLRPGAELAEGAHVGNFVEIKKARLGKGSKAGHLSYLGDAEIGAGVNIGAGTITCNYDGANKFKTIIGDDVFVGSDTQLVAPVTVANGATIGAGTTVTRDVAENELVISRVKQVHIQGWKRPVKKK", "soluble on expression in E. coli": "soluble"},
      {"sequence": "MASDPITTQEFSPRQNAVLDQALRLLVEGGEKALTTSGLARAANCSKESLYKWFGDRDGLLAAMITFQQSKVRTFEKAGDRVSAPQLADHLEVFAHDLLDVLAGDVSLALNRLAIGQASRDGSKLGDLLLERGRRQIDRRARGLIEAGRRSGYLRFDDAEEAYRSFYGLIVSDLHVRMLLGEAPDKDFSARAKKAVVAFLTLYGTEKVHSELGGKVA", "soluble on expression in E. coli": "soluble"},
      {"sequence": "MDIQTRKSILWDAFEELKTRWGADEKFLERVEEEELTVDGLPESKVRDLIELREKYQLDELEFLFIVGTAVGLYQGQKQVKEILQRRMSALNEFVSSLVGREL", "soluble on expression in E. coli": "not soluble"},
      {"sequence": "MVHVKDVLADQLLANANDPSWYMPFSDAVKDLSEREAFWKPNEECNSIAEIVQHLLYWNSTWQTRYKESHVNAVPAIGDNNKSFMLSDNQTFDELREKLLEKLLQWQTLINEEKVESDVVGFPVSAKWWEVLANVTTHNAYHIGQIIYIRKLQQSFDNK", "soluble on expression in E. coli": "not soluble"},
      {"sequence": "MGREFLDLFEQWAESYDQSVEGYDEQYRDVFAGYDRILSTVADKAGQVVLEFGIGTGNLTKKLLERGKTVYGIEPSAPMRKKAAEKLGERAVIMDGDFLQFPLPPEPIDTIASTYAFHHLTDAEKDEAIAKYSQLLHSGGKIVFADTAFRDKEAFRQTVEAARARGFHDLADDLEREYYTTLDVLASLFANHGFSVSFAQQNAFVWVMEAVKQTTLEHHHHHH", "soluble on expression in E. coli": "soluble"},
      {"sequence": "MLKDQANQLEFPRDFLGISLADQPNKYYFIIRTQRIVLEADSSIQLIMEKLQSYKSKVALYFDGFQYQLGDFRLRVGKVVPTHSENVRGIVMEVEYLPISSMEKAQKVMEEFLEIWNEALAKRSLPGKFVNIDLNFGEFGLGDIYTPQHTAVRYALVMAHMIATVQAVRG", "soluble on expression in E. coli": "soluble"},
      {"sequence": "MSEQFEMIAKTFQGLEEILAEELTTLGANDIQIGRRMVSFTGDKRMMYKANFCLRTAIRILKPIKNFTAKDADEVYNQIQAIPWEEYLDVNKTFAIDAVVFSEEFRHSKFVSYKVKDAIVDYFRKKTGKRPSVRINNPDVLLNIHIAQTTCTLSLDSSGESLHRRGYRQEQVDAPLNEVLAAGMLLMTGWRGECDLIDPMCGSGTIPIEAALIARNIAPGVFRKGFAFEKWVDFDSEMFDEIYNDDSQEREFTHKIYGYDNNPKANEIATHNIKAAGVSKDVTLKLQPFQQFEQPQEKSIIVMNPPYGERISTNDLLGLYQMIGERLKHAFVGNEAWVLSYREECFDQIGLKPSKKVPLFNGALECEFRKYEIFDGKYKEFKSQEGEGEEKKETEGNYDTSRPRERKEFKPRGEGEFKPRREGEFKPRREGEFKPRKEGDFKPRREEGSFTRDDRDRKPRGEFRGERDSRAPREFRGNREPRIPKKEEE", "soluble on expression in E. coli": "not soluble"},
      {"sequence": "MAHHHHHHMWNGPTYAIARVRWDSVVRTFSACGTSLASPQRRFSSWFEEQPGGGQHNVEDKAVAAFAVNADRLEKGKTIIKKKAHGIPFHISDAEAVDNVCRHHGAAVEIHSVERFLMPFWLTETSAAGTFKADLLQHDRMNITQPHYFLWLEGPRYQFNYPFGEYMPMNQVSASYREPLKVVERCLTGTHVPSMLLSRFELLHEVEKMEHRPTVIPFTMSTVTALSVIERRVNRRVVLDRIDRELRKFHGSFLKSNVSVMSLQMVASSIRPAFLPLFKLTVSTISHSTPVPAFICGATGKVVGPVLHVQRRKRLGLAAAAAVGTLLSLAPLVEPGVATAAALAVVASSGFVQQAVQRARFVREQAHQMAQLKSVGVLNLVADSTGYRWTPEEEEKEEYEYREELRRQARARDAFEQRVKEEAARDRVRAHGTHFDPKNRRRTDLADVDPRGYYELLGLKGKEFSATAKDITKAFREAVRIHHPDVHPEGEAENKKRHMQRIIEAYKILHNPKTKKFYDSGEMSGKSQETS", "soluble on expression in E. coli": "not soluble"},
      {"sequence": "MGSDKIHHHHHHMVATLDDTKRNAIAVKLASIKALQQLVIENEQSLLREGLDAEIADRIRNFLKDDEKNLGVLETVIGQYGIQAEPKKNVTQFIEKARELFKGSELSLYEKVSQHELLKHQLVMSGLIVHKAAQKVGADVLLAIGPLNTINFENRAHQEQLKGILEILGVREFTGQDADQGIWARVQDAMAAVSGVVGSAVTQTSDKSDLNIQDVIRLDHNKVNTLFTELLQSDNPQKIQEYFGQIYKDLTAHAEAEEEVVYPRVRPFYGQDNTQELFDEQAEMKRVLEQIKAISPSSSEFKDRVRQLMEAVGDHIRQEESTMFAAIRNNLSSDQSEQLATEFKAAKTRIQEKLGVVSESNA", "soluble on expression in E. coli": "not soluble"},
      {"sequence": "MKKVLLTLSLSIVASMGSFAQNEPYKNPKLTPEERAEDLLGRLTLKEKIGLMKNSSFAVERLGVAPYNWWSEALHGVARNGLATVFPITMGMASTFDDEAIERVYVAVSDEGRAKFHDAHRSNRYGYGNEGLTFWNPNVNIFRDPRWGRGQETFGEDPYLTTRMGVAVVKGMQGPADAEYDKAHACVKHYAVHSGPEAKRHSFDVEDLSPRDLWETYLPAFKALVQEADVKEVMCAYQRLEGEPCCDSNRLLTQILRDEWGYKHLVVSDCGAIDDFFVKGRHETHKDAADASASAVINGTDLECGSIYSHLEEAVKQGLITEERIDTSLRRLLKARFALGEMDP", "soluble on expression in E. coli": "not soluble"},
      {"sequence": "MGSDKIHHHHHHMSHNIKYRQLKAFRILAESGSFKHAADSLAVTQPSMSIMIRELESDLGVALIDRATRSAELTDAGRDFYQQIKGSLDQLEKAYSYANAAGKAEHGRVRIATLTSLAAEAVTTAIARMHAERPGIQIELMERTYFLALRRREVDLGVGILHEAHADLDFQYLFSDQLVVVTPKGHPLARQRQPLKHLGKYDVVVVSPGPSLEALQELDADCAPPVQVEQPSTAITMVRKGLGVTVTSSSATTGLDMRGLAAVPIPGTTRDVGVITLAQARLSPVASAFLRCLRHVHPAG", "soluble on expression in E. coli": "not soluble"},
      {"sequence": "MTCDDLKSGEKRLIPKPTCRFKDAFQQYPDLLKSIIRVGILKPTPIQSQAWPIILQGIDLIVVAQTGTGKTLSYLMPGFIHLDSQPISREQRNGPGMLVLTPTRELALHVEAECSKYSYKGLKSICIYGGRNRNGQIEDISKGVDIIIATPGRLNDLQMNNSVNLRSITYLVIDEADKMLDMEFEPQIRKILLDVRPDRQTVMTSATWPDTVRQLALSYLKDPMIVYV", "soluble on expression in E. coli": "soluble"}
    ]}
  ]
}
